Molecular target: the molecule itself
Assay: SEC; size exclusion profile of recombinant NiNTA purified 6X HIS SUMO proteins on a SD75 column, void volume 40.25 ml; AtSUMO3 and AtSUMO5 after refolding

B1: 6X HIS tagged AtSUMO5, recombinant, refolded (natural protein, Arabidopsis thaliana, UniProt Q8VZI7 1-108, looked up)
chain: MVSSTDTISASFVSKKSRSPETSPHMKVTLKVKNQQGAEDLYKIGTHAHLKKLMSAYCTKRNLDYSSVRFVYNGREIKARQTPAQLHMEEEDEICMVMELGGGGPYTP
notes: 15N-labelled; not shown: His6, N-terminal, kept
binding result: binds

B2: 6X HIS tagged AtSUMO3, recombinant, refolded (natural protein, Arabidopsis thaliana, UniProt Q9FLP5 1-111, looked up)
chain: MSNPQDDKPIDQEQEAHVILKVKSQDGDEVLFKNKKSAPLKKLMYVYCDRRGLKLDAFAFIFNGARIGGLETPDELDMEDGDVIDACRAMSGGLRANQRQWSYMLFDHNGL
notes: as for B1
binding result: binds

Source: publication PMC7461331, “Stability of Begomoviral pathogenicity determinant βC1 is modulated by mutually antagonistic SUMOylation and SIM interactions” (BMC Biology, 2020)
